Results reported in patent US20190202907A1 (180 THERAPEUTICS, published 2019).
Where a chain is given by its changes, count along the chain named.

T1: human ST2L (human, UniProt Q01638 19-328, limits assumed)
T1 construct: also called IL-1R4; IL-33Ra
T1 sequence (looked up): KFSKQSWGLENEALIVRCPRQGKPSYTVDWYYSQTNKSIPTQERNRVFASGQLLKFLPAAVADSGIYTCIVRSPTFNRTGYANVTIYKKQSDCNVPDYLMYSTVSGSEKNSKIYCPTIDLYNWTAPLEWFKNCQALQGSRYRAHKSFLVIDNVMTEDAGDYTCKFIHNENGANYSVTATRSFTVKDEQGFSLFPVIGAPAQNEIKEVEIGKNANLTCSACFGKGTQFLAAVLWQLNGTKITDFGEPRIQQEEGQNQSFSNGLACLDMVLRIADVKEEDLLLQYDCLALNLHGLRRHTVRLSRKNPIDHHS

B1: STLM103 (antibody, from another filing, V domains shown)
VH: EVQLLESGGGLVQPGGSLRLSCAASGFTFSFYDMFWVRQAPGKGLEWVSSIRGEGGRTDYADSVKGRFTISRDNSKNTLYLQMNSLRAEDTAVYYCARDPWSTEGSFFVLDYWGQGTLVTVSS
VL: EIVLTQSPATLSLSPGERATLSCRASQSVDDDLAWYQQKPGQAPRLLIYDASNRATGIPARFSGSGSGTDFTLTISSLEPEDFAVYYCQQYIGAPITFGQGTKVEIK
B2: STLM108 (antibody, from another filing, V domains shown)
VH: B1 VH with F31I, F35I, S50T, R52K, R57G, D59Y
VL: B1 VL
B3: STLM123 (antibody, from another filing, V domains shown)
VH: B1 VH with F31D, D33A, S50A, R52E, R57E, D59N
VL: B1 VL with G93T, I96L
B4: STLM206 (antibody, from another filing, V domains shown)
VH: B1 VH with F31I, F35I, S50T, R57S, D59Y
VL: B1 VL with G93T, I96L
B5: STLM222 (antibody, from another filing, V domains shown)
VH: B1 VH with F31I, D33S, S50D, R52G, R57G, D59S
VL: B1 VL
B6: STLM210 (antibody, from another filing, V domains shown)
VH: B1 VH with F31D, Y32D, D33A, F35I, S50Y, R52G, E54N, R57T, D59Y
VL: EIVLTQSPATLSLSPGERATLSCRASQSVDDDLAWYQQKPGQAPRLLIYDASNRATGIPARFSGSGSGTDFTLTISSLEPEDFAVYYCQQYNDAITFGQGTKVEIK
B7: STLM107 (antibody, from another filing, V domains shown)
VH: B1 VH with F31D, D33A, S50A, R52E, R57E, D59N
VL: B1 VL
B8: STLM212 (antibody, from another filing, V domains shown)
VH: B1 VH with F31V, F35I, S50T, R57G, D59Y
VL: B6 VL
B9: STLM207 (antibody, from another filing, V domains shown)
VH: B1 VH with F31S, F35I, S50T, R57T, D59A
VL: B1 VL with G93T, I96L
B10: STLM208 (antibody, V domains shown)
VH: B1 VH with F31I, F35I, R57G, D59Y
VL: B1 VL with G93T, I96L
B11: STLM221 (antibody, from another filing, V domains shown)
VH: B1 VH with F31I, S50Y, R57D, D59N
VL: B1 VL
B12: STLM219 (antibody, from another filing, V domains shown)
VH: B1 VH with F31G, S50D, R52G, R57S, D59N
VL: B1 VL
B13: STLM124 (antibody, from another filing, V domains shown)
VH: B1 VH with F31I, F35I, S50T, R52K, R57G, D59Y
VL: B1 VL with G93T, I96L
B14: STLM211 (antibody, from another filing, V domains shown)
VH: B1 VH with F31G, D33A, F35I, S50Y, R52E, R57E, D59Y
VL: B6 VL
B15: STLM220 (antibody, from another filing, V domains shown)
VH: B1 VH with S50D, R57G, D59A
VL: B1 VL
B16: STLM209 (antibody, from another filing, V domains shown)
VH: B1 VH with F31I, F35I, S50T, R57G, D59S
VL: B1 VL with G93T, I96L
B17: STLM213 (antibody, from another filing, V domains shown)
VH: B1 VH with F35I, S50T, R57D, D59N
VL: B1 VL with G93D, I96L
B18: STLM217 (antibody, from another filing, V domains shown)
VH: B1 VH with F31V, S50D, R52K, R57E, D59S
VL: B1 VL
B19: STLM218 (antibody, from another filing, V domains shown)
VH: B1 VH with F31V, Y32D, D33S, R52E, E54N, R57A, D59Y
VL: B1 VL
B20: STLM226 (antibody, from another filing, V domains shown)
VH: EVQLVQSGAEVKKPGATVKISCKVSAFNIKDDYMHWVQQAPGKGLEWMGRIDPAIGNTEYAEKFQGRVTITADTSTDTAYMELSSLRSEDTAVYYCATGDFYAMAYWGQGTLVTVSS
VL: DIQMTQSPSSLSASVGDRVTITCITNTDIDDVIHWYQQKPGKAPKLLIYEGNTLRPGVPSRFSGSGSGTDFTLTISSLQPEDFATYYCLQSDNLLTFGQGTKLEIK
B21: STLM232 (antibody, from another filing, V domains shown)
VH: B20 VH
VL: B20 VL with L73F, F83I, L94M
B22: STLM231 (antibody, from another filing, V domains shown)
VH: B20 VH
VL: B20 VL with A43V, F83V, L94M
B23: STLM230 (antibody, from another filing, V domains shown)
VH: B20 VH
VL: B20 VL with L94M
B24: STLM228 (antibody, from another filing, V domains shown)
VH: B20 VH
VL: B20 VL with S10T, D70E, E81D, L94M
B25: STLM229 (antibody, from another filing, V domains shown)
VH: B20 VH
VL: B20 VL with L11V, L94M
B26: STLM227 (antibody, from another filing, V domains shown)
VH: B20 VH
VL: B20 VL with M4L, S10F, D70E, L94M

Target: cyno ST2L (cyno)
Experiment: affinity table; method not stated

Kd [nM]	koff [s⁻¹]	kon [M⁻¹ s⁻¹]	Binder
0.031	0.000202	6.42e+06	B1
0.029	0.000598	2.05e+07	B2
0.005	0.000519	1e+08	B3
0.006	0.000583	9.4e+07	B4
0.029	0.000345	1.18e+07	B5
0.009	0.000528	5.7e+07	B6
0.007	0.00055	1e+08	B7
0.024	0.000346	1.43e+07	B8
0.021	0.00207	1e+08	B9
0.005	7.02e-05	1.39e+07	B10
0.022	0.00013	6.04e+06	B11
0.022	0.00023	1.07e+07	B12
0.03	0.00257	8.71e+07	B13
0.014	0.00139	1e+08	B14
0.009	0.00014	1.6e+07	B15
0.009	0.000311	3.39e+07	B16
0.008	0.000124	1.64e+07	B17
0.004	0.000138	3.81e+07	B18
0.018	0.000265	1.45e+07	B19
0.301	0.0301	1e+08	B20
0.08	0.00797	1e+08	B21
0.172	0.0143	8.27e+07	B22
0.144	0.0073	5.06e+07	B23
0.155	0.0155	1e+08	B24
0.085	0.0085	1e+08	B25
0.294	0.0294	1e+08	B26

Target: T1, human ST2L
Experiment: affinity table; method not stated

Kd [nM]	koff [s⁻¹]	kon [M⁻¹ s⁻¹]	Binder
0.041	0.000163	3.97e+06	B1
0.097	0.000222	2.29e+06	B2
0.015	0.000208	1.37e+07	B3
0.025	0.00016	6.39e+06	B4
0.037	0.000301	8.22e+06	B5
0.019	0.000227	1.21e+07	B6
0.012	0.000341	2.9e+07	B7
0.032	0.000398	1.24e+07	B8
0.048	0.000395	8.33e+06	B9
0.011	6.76e-05	5.97e+06	B10
0.035	9.61e-05	2.73e+06	B11
0.027	0.000201	7.54e+06	B12
0.046	0.000756	1.65e+07	B13
0.029	0.000483	1.7e+07	B14
0.016	9.53e-05	5.8e+06	B15
0.026	0.00017	6.59e+06	B16
0.014	0.000108	7.54e+06	B17
0.017	0.000126	7.27e+06	B18
0.023	0.000224	9.89e+06	B19
0.09	0.00193	2.16e+07	B20
0.025	0.000449	1.78e+07	B21
0.046	0.000913	1.97e+07	B22
0.038	0.000426	1.11e+07	B23
0.052	0.00104	2.01e+07	B24
0.035	0.000445	1.29e+07	B25
0.064	0.0017	2.66e+07	B26
